Experimental data taken from patent US6068841.

Target: mouse Fas on mouse hepatic parenchymal cells (mouse) (UniProt P25446)

anti-mouse Fas antibody (Jo-2; product of Phar-Mingen Co.)
Viability (%) of mouse hepatic parenchymal cells (ALAMAR BLUE fluorescence): 99%
